Results as given in patent CN113388031A (SHANGHAI INSTITUTE FOR ADVANCED STUDY OF ZHEJIANG UNIV, dated 2021).

Target: 新冠病毒RBD蛋白 (SARS-CoV-2 spike receptor binding domain, expressed and purified) (SARS-CoV-2, UniProt P0DTC2 319-541)

B1: 单克隆抗体35B5 (monoclonal antibody 35B5) (antibody, V domains shown, not shown: large carriers)
VH: QVQLLESGGGLVQPGRSLRLSCAASGFTFDDYAMHWVRQAPGKGLEWVSGVSWNSGTIGYADSVKGRFTISRDNAKNSLYLHMRSLRAEDTALYYCAKAVEMVRGLMGLGADPEYGMDVWGQGTTVTVSS
VL: not shown
In the case of B1, the Kd is reported as 2.19 pM.
